Two substances from paper doi:10.1101/2020.11.15.382044 can be followed below.

What is called stoichiometry N is a count of units in the complex or per binding partner.

Test [1] addresses SARS-CoV-2 D614G mutant S trimer (design Spike_ΔCter_ΔFurin_2P_T4_His with D614G) (SARS-CoV-2 | bacteriophage T4) (UniProt P0DTC2). Put plainly: negative-stain electron microscopy.
Test [2] concerns the target SARS-CoV-2 Spike trimer (Wuhan), design Spike_ΔCter_ΔFurin_2P_T4_His (SARS-CoV-2 | bacteriophage T4) (UniProt P0DTC2). Put plainly: negative-stain electron microscopy.
For test [3] the target is unchanged. In words: SEC. On the technique in general: In gel filtration, larger molecules generally elute earlier.

“SARS-CoV-2 D614G mutant S trimer (design Spike_ΔCter_ΔFurin_2P_T4_His with D614G) (from UniProt P0DTC2 14-1213) (complex)”: the stoichiometry N in test [1] stood at 3.

Regarding “SARS-CoV-2 Spike trimer (Wuhan), design Spike_ΔCter_ΔFurin_2P_T4_His (from UniProt P0DTC2 14-1213) (complex)”, the stoichiometry N in test [2] and in test [3] was 3 in each case.
